Assay: soluble on expression in E. coli; label from the status in PepcDB or PDB records

| Sequence | soluble on expression in E. coli |
| --- | --- |
| MARSFKVLSPTAILGYGFPEESFRKAMAESPDLIAVDAGSSDPGPHYLGAGKPFTDRAGVKRDLRYMITAGVQNNIPVVIGTAGGSGAAPHLEWCREIIHEIAREEHLSFSMALIPADVDKAIVHQALDNGKITALDFVPPLTHDAIDESTYIVAQMGIEPFQRALKERAQVVLGGRAYDPACFAALPIMQGFDEGLALHCGKILECAAIAATPGSGSDCAMGIIDDNGFTLKTFNPKRKFTETSAAAHTLYEKSDPYFLPGPGGVLNLKGCTFKAVNDGEVYVSGSKHEETPYALKLEGARRVGFRCLTIAGTRDPIMIAGIDKIIDEVKTSVSRNLSLDDDSIRINFHLYGKNGVMGDHEPMQTAGHELGIVLDVVAPTQEIANSVCSLVRSTMLHYGYENRIATAGNLAFPFSPSDIQGGPVYEFSIYHLIEANDALRFDFHIEQVTPEGVQA | soluble |
| MARTEIWLRLMYVGDLYGEAMLNMANSLIRQPQINRTHLQEAGLTARQAERFLQLPAGVLDETLRWLELPQHHFLCADSEIYPPQLRAIDDYPGAIFIDGDPACLHTCQLAVVGSRSHSWYGERWGRLLCESLAKSGLTITSGLARGIDGVAHNAAVSMGGKSVAVLGNGLAKIYPRRHAMLAENLIATGGAVVSEFPLSTPPLPQHFPRRNRIISGLSKGVLVIEAALRSGSLVTARCALEQGRDVFALPGPIGSPGSEGTHWLIKQGATLVTTPEDILENLQYGLHWLPTTAENSLYSLNQDEAALPFPELLANVGDEVTPVDVVAERAGQPVPAVVAQLLELELAGWIAAVPGGYVRLRRASHVRRTNVFV | not soluble |
| MARTVFCEYLKKEAEGLDFQLYPGELGKRIFDSVSKQAWGEWIKKQTMLVNEKKLNMMNAEHRKLLEQEMVNFLFEGKDVHIEGYVPPSN | not soluble |
| MARVYVSTVVNARNDRVWARVRDFNGLPNWHPAIAESRIEGGEPSDKIGCVRDFRLRNGDRIREKLLGLSDYDMFCTYSILESPMGVENYVATLRLTPVTDGDQTFMEWTAEFDCAPERETELVNNIGGGVFQGGFDALKRVFGGLEHHHHHH | soluble |
| MASDRKRQIIEAAAQSFAAFGYKATTMEQIAKLANVGKGTIYTFFKSKEELLDEIVSGLIMEIKAEAELAMDSSLPFSENVHRALYRILEFRQRHQLTAKLLQEVRNIGTVAVQEVLAKLDRAMVEFIRQKIDAAVEKGEIRPCNSEITAFLMLKTYIALIVDWEKDHEPLTKEQIAELFTLYFLQGLSR | not soluble |
| MASDTPGFYMDKLNKYRQMHGVAITYKELSTSGPPHDRRFTFQVLIDEKEFPEAKGRSKQEARNAAAKLAVDILDNENKVDCHT | soluble |
| MASEDKFESVLSTRYCKNSPLVSILSETNKATLWRQLWIWLAEAEKELGLKQVTQDAIDEMKSNRDVFDWPFIRSEERKLKHDVMAHNHAFGKLCPTAAGIIHLGATSCFVQDNADLIAYRDSIDHILKRFATVIDRLAAFSLKNKEVVTVGRTHYQTASLVTVGKRGVLWAQELLMAFQSLSEFRDKMRFRGIKGATGTQDSFLTLFAGDESKVEALDELVTKKANFSNRFLITGQTYSRQQDSQLVFSLSLLGAAAKKVCTDIRVLQAFGELLEPFEKDQIGSSAMPYKKNPMKSERCCALSRKLINAPQEALTILADQGLERTLDDSAGRRMLIPDVLLTAEALLTTLQNIFEGLSVQTDNVKKIVEDEIAFLGLEKAMMMLTEEGVDRQQAHAVIRKTALEAKQLQATQKVDIRQTMADPFFDSVRDRVVGLVNNPINFTGRCVSQTESFIAKELKPTIDKYLDKSAGNVQLDV | soluble |
| MASFPFLMTPETMNKLVTPNSASISSSSSSPSTSTSFSIDTLLSNPLAGIPQLHNFQDPFGAVGAAAAASALPWQFHPANYPFFSMLCGPLMPPFMAPYHHQHYASRRKRRHRTIFSEEQLNILETTFSTTHYPDATTREELAVQCSLKEERVEVWFKNRRAKERKQKKDDSRTSKHSGDDSECDESDEDTRKVKRIKRENSSGKETSSPESKASLKTSHSENLVLEPC | not soluble |
| MASGKATSLYSHAEIFLPSKQESGIKKKSGEETQQTKGATIESSRINQNRAERTQRFQTQCSKRKPYEIRQGIPERSSSKQDPGNKTASIEHRGRENPSETHES | not soluble |
| MASIAIEYHSVVLGMERKVNVIYPDQSEIPKKDQGDKDIPVLYLLHGMGGNENSWQKRTAIERLLRHTNLIVVMPSTDLGWYTDTAYGLNYYRALSQELPQVLAAFFPNMTQKREKTFVAGLSMGGYGAFKWALKSNRFSYAASFSGALDFSPETLLEGKLGELAYWQGVFGQFDDPDLDKHYLKNMVAESDGKTKFYAWCGYEDFLFATNEKAIADFQAQGLDIDYHKGHGKHEWYYWNQQLEVLLEWLPINYQKEERLS | not soluble |

Source: the DeepSol protein solubility set
